Assays:
healthy subjects = assay: UVA/UVB-irradiation study in human subjects: skin color a* (erythema) by Chromameter; format: in vivo; details: topical, 1.25 MED UV, n=7
Protocol: The objective of this study was to assess the UV-protection potential of three compositions containing RoxP in 7 healthy subjects by measuring the antioxidative effect and skin erythema. Oxidative stress was induced by exposition to UVA- and UVB-light to the skin on the upper back. The anti-oxidative activity of the test products was evaluated by measurement of sebum lipid oxidization levels (concentration of squalene monohydroperoxide) of swab-samples from the skin surface. The potential was assessed after two applications of RoxP in comparison to water, an untreated control and one hydrophilic standard antioxidant (H1) after induction of a light sunburn (1.25 MED). […] Additionally, the UV-protection potential of the products was evaluated by measuring the produced erythema (Chromameter). […]
Erythema was evaluated (Chromameter) at t1=baseline before irradiation, t2=30 to 50 minutes after irradiation, and t3=16 to 24 hours after irradiation. Squalene monohydroperoxide (SQOOH) was quantified at 25 to 45 minutes after irradiation. […]
On Day 2, subjects returned to the Study Site 20±4 hours after irradiation. […] The reading of the MED was performed and the irradiation time for 1 MED was determined. The correct dose for the irradiation of test areas was calculated by multiplying the irradiation dose of 1 MED with the factor for irradiation (1.25). […]

[1] = Deoxyribose (TBA-MDA) assay; format: biochemical; details: 2 mg/ml RoxP, 37° C., 1 h
Protocol: Deoxyribose assay is a well-established method to measure generation of hydroxyl radicals in biological systems and for evaluating the ability of antioxidants to reduce .OH radical generation. Such assays are described for example in Gutteridge & Halliwell (Biochem J. 1988, vol. 253(3), 932-933) and references therein. In particular, deoxyribose incubated with H2O2 and Fe2^+ (or Fe3^+ plus a reductant) is degraded into products that can react to form thiobarbituric acid-malondialdehyde (classic TBA-MDA assay) chromogen. This reaction is driven by —OH radicals. A reduction in prevalence of .OH radicals will result in fewer formed complexes and lower absorbance.
A reaction mixture containing 5 mM 2-deoxyribose, 100 μM FeCl3, 100 μM EDTA, 1 mM H2O2, and 7.6 μg/ml ascorbic acid in buffer A (20 mM KH2PO4—KOH, pH 7.4), including or not 2 mg/ml RoxP, in triplicate, was incubated at 37° C. for 1 h (total volume 1 ml). After incubation, 1% w/v TBA (thiobarbituric acid) in 50 mM NaOH, and 2-8% v/v TCA (trichloroacetic acid) was added, followed by incubation at 95° C. for 15 minutes, and reading of absorbance at 532 nm.

[2] = Lipid hydroperoxide assay in UV irradiated and non-irradiated plasma; format: biochemical; details: 300 μg RoxP in 500 μl blood, plasma both irradiated (UVA/UVB) and non-irradiated
Protocol: Hydroperoxides react with Fe^2+ ions to produce Fe^3+ ions which are detected using thiocyanate ion as chromogen. Lower abundance of Fe^3+ ions results in lowered absorbance, indicating lower level of lipid hydroperoxides in irradiated plasma.
Blood was collected in EDTA tubes. Samples containing 500 μl blood+150 μl RoxP (300 μg RoxP), or 500 μl blood+150 μl PBS, were subjected to irradiation:
UVA—irradiation 3×5000 μJ/cm^2; tubes were rotated between irradiation steps; or
Controls having composition identical to the samples, but not irradiated, were included in the experiment.
The blood samples were centrifuged at 1000×g, plasma was collected and frozen at −80° C.
Lipid hydroperoxides were quantified using lipid hydroperoxide assay kit (Cayman Chemical, item no. Item No. 705002).

[3] = RoxP interaction with coproporphyrin III (absorbance curves); format: binding; details: 1 mg/ml RoxP (100 μl) with 50 μg Coproporphyrin
Protocol: 1 mg/ml RoxP (100 μl) was mixed with 50 μg Coproporphyrin (10 μl) and total volume was adjusted to 290 μl with PBS. Absorbance was measured at different wavelengths. The absorbance curves indicate binding of coproporphyrin III by RoxP (see FIG. 26).

B1: RoxP: radical oxygenase of Propionibacterium acnes, secreted antioxidant protein of C. acnes; SEQ ID NO: 1 for strain KPA171202 (protein)
chain: MFVQIAASLAAASSIALGIPGAATPIDESQLPVGPQVSVTDSAQHTGPFAASSPLTITVKPGAPCVRADGYQESMVTRVLDDKGHQVWTGTFDESKLIGGTGLGTATFHVGSPAAAFNFHGSERTTYRTLSYCAYPHYVNGTRERLSQVSVKTFMVDPALN
modifications: Cutibacterium acnes
increase of skin color a* (median) (healthy subjects; during 24 hours, water control 6 units): 3.4 units | erythema 30-50 min after UV irradiation (healthy subjects): less erythrema than the water control | absorbance at 532 nm (generation of .OH radicals) [1]: reduced | lipid hydroperoxide levels [2]: reduced | binding of coproporphyrin III [3]: binding

Reference: patent US20220000762A1, “COMPOSITIONS FOR TREATING OXIDATIVE STRESS-ASSOCIATED SKIN DISEASES AND SKIN AGEING AND DIAGNOSIS OF OXIDATIVE STRESS-ASSOCIATED SKIN DISEASES” (priority 2019, published 2022)
